Experimental data reported in publication PMC10707464.

Key:
[1] = tested on: CCCCCCCCCC(=O)CC(=O)N[C@H]1CCOC1=O; experiment: purified protein; details: 25.0 °C
CCCCSC1CCC(=O)O1 = experiment: purified protein; details: pH 8.0; 25.0 °C

Substance | kcat/Km [1] [M⁻¹ s⁻¹] | Km (CCCCSC1CCC(=O)O1) [µM] | kcat/Km (CCCCSC1CCC(=O)O1) [M⁻¹ s⁻¹]
SacPox (Sulfolobus acidocaldarius DSM 639) | 1.62e+07 ± 2.2e+06 | 24 ± 0.5 | 1.86e+06 ± 70000
SsoPox (Saccharolobus solfataricus P2) | – | 80 ± 3 | 360000 ± 10000
